Measured values as given in patent US20220098577.
Where two headings read alike, the source gives them in different places.

Experiments:
[1] = molecular target: T1, T4 DNA ligase (Enterobacteria phage T4?) (UniProt P00970)
T1 sequence: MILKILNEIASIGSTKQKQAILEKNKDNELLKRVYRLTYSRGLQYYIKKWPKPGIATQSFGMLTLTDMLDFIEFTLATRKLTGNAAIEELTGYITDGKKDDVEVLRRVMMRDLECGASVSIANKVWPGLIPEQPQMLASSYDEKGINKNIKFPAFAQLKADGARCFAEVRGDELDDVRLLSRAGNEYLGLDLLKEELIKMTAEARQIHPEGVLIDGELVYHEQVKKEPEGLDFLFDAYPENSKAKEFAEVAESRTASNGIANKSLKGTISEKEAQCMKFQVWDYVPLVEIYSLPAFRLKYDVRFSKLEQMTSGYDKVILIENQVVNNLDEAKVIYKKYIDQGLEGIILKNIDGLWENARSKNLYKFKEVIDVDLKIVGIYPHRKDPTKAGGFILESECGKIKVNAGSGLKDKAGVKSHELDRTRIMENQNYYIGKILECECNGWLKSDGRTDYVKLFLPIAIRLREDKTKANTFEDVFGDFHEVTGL

[2] = molecular target: T1, T4 DNA ligase (Enterobacteria phage T4?); conditions: 5'-phosphate, 25 C
SapI = molecular target: T2, SapI (UniProt O52712); assay: cleavage_in_vitro; conditions: SapI digestion giving 3-base overhang
T2 sequence: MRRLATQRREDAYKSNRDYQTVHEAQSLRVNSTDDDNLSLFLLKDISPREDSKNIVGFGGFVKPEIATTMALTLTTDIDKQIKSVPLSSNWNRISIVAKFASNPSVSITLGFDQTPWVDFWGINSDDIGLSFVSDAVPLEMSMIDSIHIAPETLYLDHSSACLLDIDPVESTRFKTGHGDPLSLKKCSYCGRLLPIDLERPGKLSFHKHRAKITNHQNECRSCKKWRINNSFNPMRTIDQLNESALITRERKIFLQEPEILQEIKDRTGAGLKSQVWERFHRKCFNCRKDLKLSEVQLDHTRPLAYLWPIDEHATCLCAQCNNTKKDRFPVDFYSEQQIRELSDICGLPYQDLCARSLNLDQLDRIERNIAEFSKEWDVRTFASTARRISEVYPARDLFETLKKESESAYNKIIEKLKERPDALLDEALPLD

GNN/TNN mismatch overhang substrate
relative ligation rate (fold faster than TNN/GNN) ([1]; ligation of edge G:T mismatch): 80

NNNCGAAGAGCTGCGATCCAGTGCGCCGTGCATTGATCAACGCAANNNNNNATCTCTCTCTTTTCCTCCTCCTCCGTTGTTGTTGTTGAGAGAGATNNNNNNTTGCGTTGATCAATGCACGGCGCACTGGATCGCAGCTCTTCG [AAA 3-base overhang substrate]
binding signal ([2]; correct ligations 1403.8 x10-5): 99.2 % fidelity

NNNCGAAGAGCTGCGATCCAGTGCGCCGTGCATTGATCAACGCAANNNNNNATCTCTCTCTTTTCCTCCTCCTCCGTTGTTGTTGTTGAGAGAGATNNNNNNTTGCGTTGATCAATGCACGGCGCACTGGATCGCAGCTCTTCG [GGC 3-base overhang substrate]
binding signal ([2]; correct ligations 864.7 x10-5): 53.6 % fidelity

NNNCGAAGAGCTGCGATCCAGTGCGCCGTGCATTGATCAACGCAANNNNNNATCTCTCTCTTTTCCTCCTCCTCCGTTGTTGTTGTTGAGAGAGATNNNNNNTTGCGTTGATCAATGCACGGCGCACTGGATCGCAGCTCTTCG [TAA 3-base overhang substrate]
binding signal ([2]; correct ligations only 209.0 x10-5): 98.6 % fidelity

TCAGGTNNNCGAAGAGCTGCGATCCAGTGCGCCGTGCATTGATCAACGCAANNNNNNATCTCTCTCTTTTCCTCCTCCTCCGTTGTTGTTGTTGAGAGAG [ligation library precursor (extended)]
activity (SapI): > 95 % cut

TNN/GNN mismatch overhang substrate
relative ligation rate (relative to GNN/TNN) ([1]; stated as about 80-fold slower than 5'-G mismatch): 0.0125
